Six substances from PMC7295778 can be followed below.

Assay [1] deals with KirBac3.1 A133C-T136C (Cys-less background C262S, C71V, C119V) crosslinked with MTS-1-MTS (UniProt D9N164). The assay is described as follows: cross-linking; purified cysteine-pair mutants at 0.03-4 mg/ml in 20 mM TRIS pH 8.0, 150 mM KCl, 0.02% DDM; MTS-1-MTS 0.5 mM, dibromobimane 2.5 mM or CuSO4 1 mM, room temperature, 30 min; read by SDS-PAGE.
For assay [2] the target is unchanged. The assay is described as follows: native MS; 200 mM ammonium acetate pH 8.0, 0.5% C8E4; Q-ToF and QExactive; collision-induced dissociation in the gas phase on the Q-ToF.
Assay [3] addresses KirBac3.1 A133C-T136C (Cys-less background C262S, C71V, C119V) crosslinked with dibromobimane (UniProt D9N164). The assay is described as follows: cross-linking; purified cysteine-pair mutants at 0.03-4 mg/ml in 20 mM TRIS pH 8.0, 150 mM KCl, 0.02% DDM; MTS-1-MTS 0.5 mM, dibromobimane 2.5 mM or CuSO4 1 mM, room temperature, 30 min; read by SDS-PAGE.
The target is the same in assay [4]. The assay can be described thus: native MS; 200 mM ammonium acetate pH 8.0, 0.5% C8E4; Q-ToF and QExactive; collision-induced dissociation in the gas phase on the Q-ToF.
The target in assay [5] is KirBac3.1 S129C-F135C (Cys-less background C262S, C71V, C119V), disulfide-linked (UniProt D9N164). The assay is described as follows: cross-linking; purified cysteine-pair mutants at 0.03-4 mg/ml in 20 mM TRIS pH 8.0, 150 mM KCl, 0.02% DDM; MTS-1-MTS 0.5 mM, dibromobimane 2.5 mM or CuSO4 1 mM, room temperature, 30 min; read by SDS-PAGE.
For assay [6] the target is unchanged. The assay can be described thus: native MS; 200 mM ammonium acetate pH 8.0, 0.5% C8E4; Q-ToF and QExactive; collision-induced dissociation in the gas phase on the Q-ToF.
For assay [7], the target named is KirBac3.1 A133C-T136C (Cys-less background C262S, C71V, C119V), disulfide-linked (UniProt D9N164). The assay is described as follows: cross-linking; purified cysteine-pair mutants at 0.03-4 mg/ml in 20 mM TRIS pH 8.0, 150 mM KCl, 0.02% DDM; MTS-1-MTS 0.5 mM, dibromobimane 2.5 mM or CuSO4 1 mM, room temperature, 30 min; read by SDS-PAGE.
For assay [8] the target is unchanged. The assay can be described thus: native MS; 200 mM ammonium acetate pH 8.0, 0.5% C8E4; Q-ToF and QExactive; collision-induced dissociation in the gas phase on the Q-ToF.
For assay [9], the target named is KirBac3.1 S129C-F135C (Cys-less background C262S, C71V, C119V) crosslinked with dibromobimane (UniProt D9N164). The assay is described as follows: cross-linking; purified cysteine-pair mutants at 0.03-4 mg/ml in 20 mM TRIS pH 8.0, 150 mM KCl, 0.02% DDM; MTS-1-MTS 0.5 mM, dibromobimane 2.5 mM or CuSO4 1 mM, room temperature, 30 min; read by SDS-PAGE.
The target is the same in assay [10]. The assay is described as follows: native MS; 200 mM ammonium acetate pH 8.0, 0.5% C8E4; Q-ToF and QExactive; collision-induced dissociation in the gas phase on the Q-ToF.
The target of assay [11] is KirBac3.1 S129C-F135C (Cys-less background C262S, C71V, C119V) crosslinked with MTS-1-MTS (UniProt D9N164). The assay can be described thus: cross-linking; purified cysteine-pair mutants at 0.03-4 mg/ml in 20 mM TRIS pH 8.0, 150 mM KCl, 0.02% DDM; MTS-1-MTS 0.5 mM, dibromobimane 2.5 mM or CuSO4 1 mM, room temperature, 30 min; read by SDS-PAGE.
For assay [12] the target is unchanged. The assay is described as follows: native MS; 200 mM ammonium acetate pH 8.0, 0.5% C8E4; Q-ToF and QExactive; collision-induced dissociation in the gas phase on the Q-ToF.

A word on the stoichiometry N: it is a count of units in the complex or per binding partner. For “KirBac3.1 A133C-T136C (Cys-less background C262S, C71V, C119V) crosslinked with MTS-1-MTS (from UniProt D9N164 1-295) (natural protein)”, the stoichiometry N in assay [1] and in assay [2] was 4 in each case.

As to “KirBac3.1 A133C-T136C (Cys-less background C262S, C71V, C119V) crosslinked with dibromobimane (from UniProt D9N164 1-295) (natural protein)”, the stoichiometry N in [3] and in [4] was 4 throughout.

Take “KirBac3.1 S129C-F135C (Cys-less background C262S, C71V, C119V), disulfide-linked (from UniProt D9N164 1-295) (natural protein)”: the stoichiometry N in assay [5] and in assay [6] was 4 in each case.

As to “KirBac3.1 A133C-T136C (Cys-less background C262S, C71V, C119V), disulfide-linked (from UniProt D9N164 1-295) (natural protein)”, the stoichiometry N in [7] and in assay [8] was 4 each time.

Turning to “KirBac3.1 S129C-F135C (Cys-less background C262S, C71V, C119V) crosslinked with dibromobimane (from UniProt D9N164 1-295) (natural protein)”, the stoichiometry N in assay [9] and in assay [10] was 4 in each case.

Consider “KirBac3.1 S129C-F135C (Cys-less background C262S, C71V, C119V) crosslinked with MTS-1-MTS (from UniProt D9N164 1-295) (natural protein)”, for which the stoichiometry N in assay [11] and in [12] was 4 each time.
